Tests used:
CD8+ T cells = assay: In vitro immunogenicity: T-cell priming with artificial antigen presenting cells loaded with peptide/MHC complexes and anti-CD28 antibody, multimer readout; assay type: cell-based, human; details: for in vitro immunogenicity, donors: percentage of positive donors; for in vitro immunogenicity, wells: percentage of positive wells
Method: In an aspect, the peptides are pre-screened for immunogenicity before being included in the warehouse. By way of example, and not limitation, the immunogenicity of the peptides included in the warehouse is determined by a method comprising in vitro T-cell priming through repeated stimulations of CD8+ T cells from healthy donors with artificial antigen presenting cells loaded with peptide/MHC complexes and anti-CD28 antibody.
In order to obtain information regarding the immunogenicity of the TUMAPs of the present invention, the inventors performed investigations using an in vitro T-cell priming assay based on repeated stimulations of CD8+ T cells with artificial antigen presenting cells (aAPCs) loaded with peptide/MHC complexes and anti-CD28 antibody.
In order to perform in vitro stimulations by artificial antigen presenting cells loaded with peptide-MHC complex (pMHC) and anti-CD28 antibody, the inventors first isolated CD8+ T cells from fresh HLA-A*02 leukapheresis products via positive selection using CD8 microbeads (Miltenyi Biotec, Bergisch-Gladbach, Germany) of healthy donors obtained from the University clinics Mannheim, Germany, after informed consent.
PBMCs and isolated CD8+ lymphocytes were incubated in T-cell medium (TCM) until use consisting of RPMI-Glutamax (Invitrogen, Karlsruhe, Germany) supplemented with 10% heat inactivated human AB serum (PAN-Biotech, Aidenbach, Germany), 100 U/ml Penicillin/100 μg/ml Streptomycin (Cambrex, Cologne, Germany), 1 mM sodium pyruvate (CC Pro, Oberdorla, Germany), 20 μg/ml Gentamycin (Cambrex). 2.5 ng/ml IL-7 (PromoCell, Heidelberg, Germany) and 10 U/ml IL-2 (Novartis Pharma, Nürnberg, Germany) were also added to the TCM at this step.
Generation of pMHC/anti-CD28 coated beads, T-cell stimulations and readout was performed in a highly defined in vitro system using four different pMHC molecules per stimulation condition and 8 different pMHC molecules per readout condition.
The purified co-stimulatory mouse IgG2a anti human CD28 Ab 9.3 (Jung et al., 1987) was chemically biotinylated using Sulfo-N-hydroxysuccinimidobiotin as recommended by the manufacturer (Perbio, Bonn, Germany). Beads used were 5.6 μm diameter streptavidin coated polystyrene particles (Bangs Laboratories, Illinois, USA).
pMHC used for positive and negative control stimulations were A*0201/MLA-001 (peptide […] (SEQ ID NO. 664) from modified Melan-A/MART-1) and A*0201/DDX5-001 ([…] from DDX5, SEQ ID NO. 665), respectively.
800.000 beads/200 μl were coated in 96-well plates in the presence of 4×12.5 ng different biotin-pMHC, washed and 600 ng biotin anti-CD28 were added subsequently in a volume of 200 μl. Stimulations were initiated in 96-well plates by co-incubating 1×10^6 CD8+ T cells with 2×10^5 washed coated beads in 200 μl TCM supplemented with 5 ng/ml IL-12 (PromoCell) for 3 days at 37° C. Half of the medium was then exchanged by fresh TCM supplemented with 80 U/ml IL-2 and incubating was continued for 4 days at 37° C. This stimulation cycle was performed for a total of three times. For the pMHC multimer readout using 8 different pMHC molecules per condition, a two-dimensional combinatorial coding approach was used as previously described (Andersen et al., 2012) with minor modifications encompassing coupling to 5 different fluorochromes. Finally, multimeric analyses were performed by staining the cells with Live/dead near IR dye (Invitrogen, Karlsruhe, Germany), CD8-FITC antibody clone SK1 (BD, Heidelberg, Germany) and fluorescent pMHC multimers. For analysis, a BD LSRII SORP cytometer equipped with appropriate lasers and filters was used. Peptide specific cells were calculated as percentage of total CD8+ cells. Evaluation of multimeric analysis was done using the FlowJo software (Tree Star, Oreg., USA). In vitro priming of specific multimer+CD8+ lymphocytes was detected by comparing to negative control stimulations. […]

HLA-A*02:01 = HLA-A*02:01 (Homo sapiens, UniProt P04439, D140Y/D185E/D98H/E176V/E277Q/G131W/G231S/I119V/I121R/I166T/I218V/L300P/L318F/N151K/N90K/P208A/P217A/Q86G/Q94H/R138H/R169H/T345S); assay: MHC binding assay (UV-ligand exchange, ELISA, peptide exchange yield); details: binding of HLA-class I restricted peptides to HLA-A*02:01
Method in brief: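 Peptide–HLA-A*02:01 complexes made by UV-ligand exchange of a UV-cleavable peptide for the test peptide. Exchange yield measured by ELISA: 100-fold diluted monomers captured on streptavidin, 1 h at 37° C., detected with HRP anti-β2m and TMB, absorbance at 450 nm.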

Substance | Peptide exchange (MHC class I binding score, peptide exchange yield) (HLA-A*02:01) | further results
2 (SLLEADPFL; listed as Homo sapiens) [compound 2] | ″+++″ (≥50% = +++) | Wells positive [%] (CD8+ T cells; HLA-A*02 restricted peptides, positive wells among evaluable): ″+″ (<20% = +)
583 (ILANDGVLLAA; listed as Homo sapiens) [compound 583] | ″+++″ (≥50% = +++) | 
584 (ALAEVAAMENV; listed as Homo sapiens) [compound 584] | ″+++″ (≥50% = +++) | 
585 (ALWDLAADKQTL; listed as Homo sapiens) [compound 585] | ″++++″ (≥75% = ++++) | 
586 (KLKPGDLVGV; listed as Homo sapiens) [compound 586] | ″+++″ (≥50% = +++) | 
587 (VMNDRLYAI; listed as Homo sapiens) [compound 587] | ″+++″ (≥50% = +++) | 
588 (SLLPLSHLV; listed as Homo sapiens) [compound 588] | ″+++″ (≥50% = +++) | 
589 (KLYPQLPAEI; listed as Homo sapiens) [compound 589] | ″+++″ (≥50% = +++) | 
590 (SLIEKLWQT; listed as Homo sapiens) [compound 590] | ″++″ (≥20% = ++) | 
591 (SMAELDIKL; listed as Homo sapiens) [compound 591] | ″+++″ (≥50% = +++) | 
592 (RLLSAAENFL; listed as Homo sapiens) [compound 592] | ″+++″ (≥50% = +++) | 
593 (GLPRFGIEMV; listed as Homo sapiens) [compound 593] | ″+++″ (≥50% = +++) | 
594 (IMLKGDNITL; listed as Homo sapiens) [compound 594] | ″+++″ (≥50% = +++) | 
595 (VLLSIYPRV; listed as Homo sapiens) [compound 595] | ″+++″ (≥50% = +++) | 
596 (ALLDQTKTLAESAL; listed as Homo sapiens) [compound 596] | ″+++″ (≥50% = +++) | 
597 (KLLEGQVIQL; listed as Homo sapiens) [compound 597] | ″+++″ (≥50% = +++) | 
598 (FLFPHSVLV; listed as Homo sapiens) [compound 598] | ″+++″ (≥50% = +++) | 
599 (YLLNDASLISV; listed as Homo sapiens) [compound 599] | ″+++″ (≥50% = +++) | 
600 (ALAAPDIVPAL; listed as Homo sapiens) [compound 600] | ″+++″ (≥50% = +++) | 
601 (SAFPFPVTV; listed as Homo sapiens) [compound 601] | ″+++″ (≥50% = +++) | 
602 (YLLEQIKLIEV; listed as Homo sapiens) [compound 602] | ″++++″ (≥75% = ++++) | 
604 (SILDRDDIFV; listed as Homo sapiens) [compound 604] | ″+++″ (≥50% = +++) | 
605 (KLYEAVPQL; listed as Homo sapiens) [compound 605] | ″+++″ (≥50% = +++) | 
606 (ALWETEVYI; listed as Homo sapiens) [compound 606] | ″+++″ (≥50% = +++) | 

Substance | Peptide exchange (MHC class I binding score, peptide exchange yield) (HLA-A*02:01) | further results
607 (RLYSGISGLEL; listed as Homo sapiens) [compound 607] | ″+++″ (≥50% = +++) | 
608 (SLLSVSHAL; listed as Homo sapiens) [compound 608] | ″+++″ (≥50% = +++) | 
609 (ALWKQLLEL; listed as Homo sapiens) [compound 609] | ″+++″ (≥50% = +++) | 
610 (LLAPTPYIIGV; listed as Homo sapiens) [compound 610] | ″+++″ (≥50% = +++) | 
611 (YLLDDGTLVV; listed as Homo sapiens) [compound 611] | ″++++″ (≥75% = ++++) | 
612 (YLYNEGLSV; listed as Homo sapiens) [compound 612] | ″+++″ (≥50% = +++) | 
613 (RLLPPGAVVAV; listed as Homo sapiens) [compound 613] | ″+++″ (≥50% = +++) | 
614 (LLLPDQPPYHL; listed as Homo sapiens) [compound 614] | ″+++″ (≥50% = +++) | 
615 (VLPPDTDPA; listed as Homo sapiens) [compound 615] | ″++″ (≥20% = ++) | 
616 (VLIDEVESL; listed as Homo sapiens) [compound 616] | ″+++″ (≥50% = +++) | 
617 (ALMYESEKVGV; listed as Homo sapiens) [compound 617] | ″+++″ (≥50% = +++) | 
618 (VLFDSESIGIYV; listed as Homo sapiens) [compound 618] | ″+++″ (≥50% = +++) | 
619 (ALQDRVPLA; listed as Homo sapiens) [compound 619] | ″+++″ (≥50% = +++) | 
620 (KLLNKIYEA; listed as Homo sapiens) [compound 620] | ″++++″ (≥75% = ++++) | 
621 (VLMDRLPSLL; listed as Homo sapiens) [compound 621] | ″++++″ (≥75% = ++++) | 
622 (RLLGEEVVRVLQA; listed as Homo sapiens) [compound 622] | ″+++″ (≥50% = +++) | 
623 (YLVEDIQHI; listed as Homo sapiens) [compound 623] | ″+++″ (≥50% = +++) | 
635 (SLDSTLHAV; listed as Homo sapiens) [compound 635] | ″+++″ (≥50% = +++) | 
648 (LLWGNAIFL; listed as Homo sapiens) [compound 648] |  | in vitro immunogenicity, donors (CD8+ T cells): +++ (50%-69% = +++); in vitro immunogenicity, wells (CD8+ T cells): ++ (20%-49% = ++)
652 (TLWYRAPEV; listed as Homo sapiens) [compound 652] |  | in vitro immunogenicity, donors (CD8+ T cells): ++++ (> = 70% = ++++); in vitro immunogenicity, wells (CD8+ T cells): +++ (50%-69% = +++)
659 (ILFPDIIARA; listed as Homo sapiens) [compound 659] |  | in vitro immunogenicity, donors (CD8+ T cells): +++ (50%-69% = +++); in vitro immunogenicity, wells (CD8+ T cells): + (<20% = +)
662 (KIQEILTQV; listed as Homo sapiens) [compound 662] |  | in vitro immunogenicity, donors (CD8+ T cells): +++ (50%-69% = +++); in vitro immunogenicity, wells (CD8+ T cells): + (<20% = +)
663 (KIQEMQHFL; listed as Homo sapiens) [compound 663] |  | in vitro immunogenicity, donors (CD8+ T cells): +++ (50%-69% = +++); in vitro immunogenicity, wells (CD8+ T cells): + (<20% = +)

From US10227388B2, “Peptides and combination of peptides for use in immunotherapy against non-small cell lung cancer and other cancers” (immatics biotechnologies GmbH, priority 2015, dated 2019)
